From patent US20140072613A1 (published 2014)

Assays:
Test in all cases: cell-based or functional assay
[1] = target: cKit(D816H)(h) (human, UniProt P10721 544-976)
[2] = target: IGF-1R(h), activated (human, UniProt P08069 959-1367, limits assumed)
[3] = target: EGFR(L861Q)(h) (human, UniProt P00533 696-1210, limits assumed)
[4] = target: T1, MuSK(h) (human, UniProt O15146 517-869, limits assumed)
T1 sequence (looked up): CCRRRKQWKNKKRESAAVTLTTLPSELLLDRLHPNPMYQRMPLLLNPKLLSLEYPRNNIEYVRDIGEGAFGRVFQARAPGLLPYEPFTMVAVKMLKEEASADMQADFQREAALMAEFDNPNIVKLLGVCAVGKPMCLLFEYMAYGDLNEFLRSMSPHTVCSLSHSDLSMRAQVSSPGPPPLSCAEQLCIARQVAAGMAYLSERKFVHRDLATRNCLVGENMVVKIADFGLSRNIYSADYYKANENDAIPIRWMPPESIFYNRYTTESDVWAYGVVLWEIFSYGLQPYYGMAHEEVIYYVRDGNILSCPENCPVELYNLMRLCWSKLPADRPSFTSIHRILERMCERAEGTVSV

[5] = target: CDK2/cyclinE(h) (human, UniProt P24941 1-298; P24864 1-410)
[6] = target: PDGFRα(h) (human, UniProt P16234 550-1089, limits assumed)
[7] = target: CDK1/cyclinB(h) (human, UniProt P06493 1-297; P14635 1-433)
[8] = target: JNK3(h) (human, UniProt P53779 1-464, limits assumed)
[9] = target: Pim-1(h) (human, UniProt P11309 1-313)
[10] = target: CaMKIIγ(h) (human, UniProt Q13555 1-558, limits assumed)
[11] = target: Tie2(h) (human, UniProt Q02763 771-1124, limits assumed)
[12] = target: T2, MKK6(h) (human, UniProt P52564 1-334)
T2 sequence (looked up): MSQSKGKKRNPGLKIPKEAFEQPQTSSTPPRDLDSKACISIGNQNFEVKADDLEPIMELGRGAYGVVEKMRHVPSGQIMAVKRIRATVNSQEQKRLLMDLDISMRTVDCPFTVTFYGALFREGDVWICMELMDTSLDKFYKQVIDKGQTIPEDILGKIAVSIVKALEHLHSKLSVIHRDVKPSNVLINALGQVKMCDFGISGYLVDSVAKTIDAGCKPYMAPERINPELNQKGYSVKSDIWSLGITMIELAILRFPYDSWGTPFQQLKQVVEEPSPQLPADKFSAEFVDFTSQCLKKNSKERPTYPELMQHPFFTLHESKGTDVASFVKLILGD

[13] = target: cKit(D816V)(h) (human, UniProt P10721 544-976)
[14] = target: T3, TSSK2(h) (human, UniProt Q96PF2 1-358)
T3 sequence (looked up): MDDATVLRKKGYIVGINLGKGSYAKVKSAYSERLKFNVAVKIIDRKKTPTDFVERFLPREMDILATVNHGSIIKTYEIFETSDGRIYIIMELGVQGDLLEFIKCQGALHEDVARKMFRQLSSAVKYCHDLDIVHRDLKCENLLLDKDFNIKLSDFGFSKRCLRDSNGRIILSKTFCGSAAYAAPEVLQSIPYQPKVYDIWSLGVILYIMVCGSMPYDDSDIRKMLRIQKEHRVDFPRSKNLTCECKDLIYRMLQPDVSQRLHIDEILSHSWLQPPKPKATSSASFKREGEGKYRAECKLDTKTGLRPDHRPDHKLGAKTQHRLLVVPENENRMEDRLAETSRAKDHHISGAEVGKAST

[15] = target: MSK1(h) (human, UniProt O75582 1-802)
[16] = target: T4, Flt3(h) (human, UniProt P36888 564-993, limits assumed)
T4 sequence (looked up): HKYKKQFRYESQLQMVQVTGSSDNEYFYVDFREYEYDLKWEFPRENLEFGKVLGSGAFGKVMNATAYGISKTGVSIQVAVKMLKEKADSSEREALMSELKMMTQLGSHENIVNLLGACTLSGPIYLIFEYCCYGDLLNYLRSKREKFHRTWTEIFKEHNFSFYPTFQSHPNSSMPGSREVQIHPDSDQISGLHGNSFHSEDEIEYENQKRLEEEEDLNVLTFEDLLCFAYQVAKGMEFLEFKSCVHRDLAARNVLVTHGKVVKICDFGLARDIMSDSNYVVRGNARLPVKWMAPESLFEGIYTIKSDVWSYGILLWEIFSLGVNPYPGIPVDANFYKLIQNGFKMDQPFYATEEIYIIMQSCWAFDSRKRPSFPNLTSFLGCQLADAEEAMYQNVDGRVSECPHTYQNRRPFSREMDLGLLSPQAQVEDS

[17] = target: GRK6(h) (human, UniProt P43250 1-576)
[18] = target: T5, SAPK4(h) (human, UniProt O15264 1-365)
T5 sequence (looked up): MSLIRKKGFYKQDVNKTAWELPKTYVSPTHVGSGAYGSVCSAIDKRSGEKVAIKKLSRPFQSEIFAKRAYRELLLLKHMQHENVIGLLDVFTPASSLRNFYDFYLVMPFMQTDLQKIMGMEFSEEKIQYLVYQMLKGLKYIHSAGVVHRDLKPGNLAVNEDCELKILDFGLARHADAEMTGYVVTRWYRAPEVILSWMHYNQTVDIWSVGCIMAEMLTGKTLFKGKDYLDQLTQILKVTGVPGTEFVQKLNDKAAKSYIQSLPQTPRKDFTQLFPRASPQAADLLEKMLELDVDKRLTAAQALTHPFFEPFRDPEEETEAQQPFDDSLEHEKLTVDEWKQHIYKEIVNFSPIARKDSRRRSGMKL

KAFAKLAARLYRKALARQLGVAA [MMI-0400]
% activity, 100 µM [1]: 143%
% activity, 100 µM [2]: 77%
% activity, 100 µM [3]: 22%
% activity, 100 µM [4]: 93%
% activity, 100 µM [5]: 83%
% activity, 100 µM [6]: 40%
% activity, 100 µM [7]: 74%
% activity, 100 µM [8]: 70%
% activity, 100 µM [9]: 7%
% activity, 100 µM [10]: 3%
% activity, 100 µM [11]: 21%
% activity, 100 µM [12]: 44%
% activity, 100 µM [13]: 35%
% activity, 100 µM [14]: 94%
% activity, 100 µM [15]: 28%
% activity, 100 µM [16]: 18%
% activity, 100 µM [17]: 141%
% activity, 100 µM [18]: 91%

FAKLAARLYRKALARQLGVAA [MMI-0300]
% activity, 100 µM [1]: 126%
% activity, 100 µM [2]: 80%
% activity, 100 µM [3]: 25%
% activity, 100 µM [4]: 93%
% activity, 100 µM [5]: 94%
% activity, 100 µM [6]: 65%
% activity, 100 µM [7]: 73%
% activity, 100 µM [8]: 89%
% activity, 100 µM [9]: 8%
% activity, 100 µM [10]: 5%
% activity, 100 µM [11]: 26%
% activity, 100 µM [12]: 48%
% activity, 100 µM [13]: 60%
% activity, 100 µM [14]: 98%
% activity, 100 µM [15]: 32%
% activity, 100 µM [16]: 84%
% activity, 100 µM [17]: 147%
% activity, 100 µM [18]: 96%
